# Molecular target: TssL-His expressed in A. tumefaciens ΔtssMΔtssL (pTrc-TssL-His) (Agrobacterium tumefaciens)
# Experiment: pull-down
substance,measurement,value
"Hcp, endogenous in A. tumefaciens (natural protein)","Hcp signal relative to TssL-His in the bound fraction, H2O-treated cells",0.21

# From PMC3346141
